Holding throughout (assay): fluorescence polarization
The target of experiment [1] is T1, labeled peptide with N-terminal leucine (XAKLDEESILKQK-FITC, SEQ ID NO: 833, X = L).
T1 peptide: LAKLDEESILKQK-{FITC′}

For experiment [2], the target named is labeled peptide with N-terminal valine (X…-FITC, SEQ ID NO: 833, X = V) (C-terminal FITC label).
Experiment [3] deals with labeled peptide with N-terminal isoleucine (X…-FITC, SEQ ID NO: 833, X = I) (C-terminal FITC label).

Primed or numbered codes have the meaning given here. Ends that are not written are not given here. FITC′ = not defined here

B1: PS961 (designed binder)
chain: MPTAASATESAIEDTPAPARPEVDGRTKPKRQPRYHVVLWDDDDHTYQYVVVMLRSLFGHPPSRGYRMAKEMDTQGRVIVLTTTREHAELKRDQIHAFGRDRLLARSKGSMKASIEAEE
As a reminder, the Kd is the free concentration of one partner at which half of the binding sites on the other are occupied at equilibrium, for simple one-to-one binding. Consider B1, for which the Kd in experiment [1] was determined as 55 nM; in experiment [2], 144 nM; in experiment [3], 68 nM.

The values are drawn from patent US20230213527A1 (published 2023).
